Test results from article PMC4081090, “Structure of the N-glycosidase MilB in complex with hydroxymethyl CMP reveals its Arg23 specifically recognizes the substrate and controls its entry” (Nucleic Acids Research, 2014).
Numbering of substitutions follows the chain as printed. In names and notes the source's numbering stands. Each block holds one molecule with its values, some of them ahead of it.

Experiments:
BlsM = target: T1, BlsM (Streptomyces griseochromogenes, UniProt Q841K1); experiment: HPLC of released 5hmC, Michaelis-Menten fit; type: biochemical; settings: 50 mM Tris-HCl, pH 7.2, 37 °C, 30 min
T1 construct: N-terminal 6xHis tag (pET28a), E. coli BL21(DE3)
T1 sequence (Q841K1 entry or part of it): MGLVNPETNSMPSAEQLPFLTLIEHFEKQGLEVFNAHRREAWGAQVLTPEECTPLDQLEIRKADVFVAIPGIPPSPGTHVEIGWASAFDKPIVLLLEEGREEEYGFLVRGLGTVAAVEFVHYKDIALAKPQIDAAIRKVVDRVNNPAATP
Source text: HPLC of released 5hmC, Michaelis-Menten fit on BlsM

[1] = substrate: Nc1nc(=O)n([C@@H]2O[C@H](COP(=O)(O)O)[C@@H](O)[C@H]2O)cc1CO; experiment: HPLC of released 5hmC, Michaelis-Menten fit; type: biochemical, Streptomyces rimofaciens; settings: 50 mM Tris-HCl, pH 7.2, 37 °C, 30 min
Source text: HPLC of released 5hmC, Michaelis-Menten fit on MilB

[2] = target: the molecule itself; experiment: SEC; size exclusion chromatography of MilB in solution (Figure S1); conditions of this run not given
[3] = substrate: Nc1ccn([C@@H]2O[C@H](COP(=O)(O)O)[C@@H](O)[C@H]2O)c(=O)n1; experiment: HPLC of released cytosine, Michaelis-Menten fit; type: biochemical, Streptomyces rimofaciens; settings: 50 mM Tris-HCl, pH 7.2, 37 °C, 30 min
Source text: HPLC of released cytosine, Michaelis-Menten fit on MilB

- Km (BlsM): 328 µM
Molecule: Nc1nc(=O)n([C@@H]2O[C@H](COP(=O)(O)O)[C@@H](O)[C@H]2O)cc1CO [hmCMP, 5-hydroxymethyl cytidine 5′-monophosphate]

B1: N-glycosidase MilB, wild type (enzyme, Streptomyces remofaciens ZJU5119, UniProt B4Y381 1-170, looked up)
chain: MTTTPKPRTAPAVGSVFLGGPFRQLVDPRTGVMSSGDQNVFSRLIEHFESRGTTVYNAHRREAWGAEFLSPAEATRLDHDEIKAADVFVAFPGVPASPGTHVEIGWASGMGKPMVLLLERDEDYAFLVTGLESQANVEILRFSGTEEIVERLDGAVARVLGRAGEPTVIG
notes: MilB, N-glycosidase (CMP/hydroxymethyl CMP hydrolase) of the mildiomycin biosynthesis pathway, Streptomyces remofaciens ZJU5119; the full-length protein consists of 170 residues; residues 12-169 are seen in the crystal model; Cloned into pET28a with an N-terminal 6xHis tag; also called WT MilB; full-length MilB; source: E. coli BL21(DE3), purified (Ni-NTA, Superdex200 gel filtration)
- Km [1]: 71.55 (11.66) μM
- kcat [1]: 0.0531 s⁻¹
- kcat/Km [1]: 743 M⁻¹ s⁻¹
- stoichiometry N [2]: 2

B2: MilB (Streptomyces rimofaciens; R23M) (protein)
chain: B1 chain with R23M
notes: full-length (170 residues), N-terminal 6xHis tag (pET28a), E. coli BL21(DE3); dimer; crystal model residues 12-169 / 12-170
- Km [3]: 1122.00 (100) μM
- kcat [3]: 0.0305 s⁻¹
- kcat/Km [3]: 27.1 M⁻¹ s⁻¹
- Km [1]: 86.63 (10.67) μM
- kcat [1]: 0.0156 s⁻¹
- kcat/Km [1]: 180 M⁻¹ s⁻¹
